# B1: CeLGRwt (full-length C. elegans LGR) (receptor)
# chain: QNALSLAQTKHSCMALKAEDGEGCTCKQTKRYGQPECCCMGLIVSQLPTNLTADVGYLYLHNTSISVITPNFFDKFPSIRELEIDNSAHLEHIDGSSLSVLSKLRKLSVVKCPNLREISGKLLVNNTRIQNVILKNNGLATMPSLRMTDAHHVLLDRIDLSGNKIKFISDSKVRNVKARTVVLSENKLIEISGYAFTESQFLKLKLNNNPDLRSLSVDAFKNMAGLQTLDLSHTSIDTLPINGLKKLKTLILNDVPTLKSLPSVLSFTDLETAHFTYPHHCCLFKYVDDVTMNDNGKYQRNAKEIHKRICDKREQQKVARRRKRETSGIDFLDMLLKEWTDNSTYTGPDDADDDELPPFVEIGAEPCQSIGEEVQKYYSNITCYPQPDALNPCENIVGYPFLRIAVWVVCLAAIVGNIIVWALLGIVYEKRMRMHYLYMINMSVADMVTGIYLAVLAIADAKMSDEYYRHAVWWQTGWGCRAAGFLAVFASELGIISMFLIAFEMSYNTRQSFRGRRLSPKVGVLLMIGGWLFAIIMAILPWFDVSSYSESSVCLPLRAATIFDKSYLIFGLSFNFLAFAAMALSYGFIVKMLKENETREEDRALITKMTVLVVTDLICWFPTLFFGFTATIGFPLLSLSSAKFVLVFFFPINAFANPFLYVFFTEVIQHRVRSKTLPVIRRITTGPLNAASSLSNFYHSQPPGAHRRSRDEPTSPSGMHLAVTQTTSLNSTPRGSDVSRASDGMLFDYDRRASASPRVSFDIPISPTTPRSDRKNRISLLKRIVSSIPEVSDLSEHSSESHHEHVPHPRRKLRSSLNRILALGRRQEGSADSGRGSIASSAGSRDQNERVSLTSNASSILSPLLSPTNSNILILPPEPSKNRRKSTPAIPLLVVSDCS
# Target: the molecule itself
# Experiment: SEC
protein,measurement,value
B1,stoichiometry N,2
